This is an account of results in the PETadex activity labels (doi:10.3390/molecules28083528).

Substrate in one data set: BHET
Nature of the data set: Proxy for plastic degradation [Released monomer concentration (HPLC/LC-MS) (TPA+MHET)].

Substrate in data set [1]: PET
Nature of the data set: Proxy for plastic degradation [Released monomer concentration (HPLC/LC-MS) (MHET+TPA)]. Conditions: pH 9.

Substrate in data set [2]: PET
Briefly: Proxy for plastic degradation [Released monomer concentration (HPLC/LC-MS) (Not Mentioned)]. The conditions noted are these: pH 9.

B1: unnamed (protein)
chain: MAVGSMLLSMAAQAQVVVFEETFSTGLGKFTAAGSVVTSSGAARLDGCYGCTDGSITSTAISTVDFTGLRLSFDRVTSGLDSGEAGIAEFSTNGSTYTAVESIRTASGRVTFNLPTSAENQSGLRLRFRINASLSSETYTVDNIRLEGTSGSGGGTTNPFEKGPDPTKTMLEASTGPFTYTTTTVSSTTASGYRQGTIYHCTNVTGPFAAVAVVPGYLASQSSINWWGPRLASHGFVVITIDTNSTSDQPPSRATQLMAALNQLKTFSNTSSHPIYRKVDPNRLGVMGWSMGGGGTLIAARDNPTLKAAIPFAPWNSSTNFSTVSVPTLIIACESDSTAPVNSHASPFYNSLPSTTKKAYLEMNNGSHSCANSGNSNAGLIGKYGVSWMKCFMDNDTRFSPYLCGAPHQADLSLTAIDEYRENCPY
Regarding B1, the “Proxy for plastic degradation” value worked out at 19.1 µM with BHET (pH 7, 30 °C); 19.5 µM with BHET (pH 7, 40 °C); 20.2 µM with BHET (pH 7, 50 °C); 19.6 µM with BHET (pH 9, 30 °C); 37.1 µM in the data set with BHET (pH 9, 40 °C); 55 µM in the data set with BHET (pH 9, 50 °C). The “Proxy for plastic degradation” value with PET [1] (30 °C, 1 h) was 2.3 µM; with PET [1] (30 °C, 2 h) it was 3.8 µM; with PET [1] (30 °C, 3 h), 1.6 µM; with PET [1] (30 °C, 4 h), 5.4 µM; in the data set with PET [1] (30 °C, 5 h) it was 4.6 µM; in the data set with PET [1] (30 °C, 6 h), 4.9 µM. The “Proxy for plastic degradation” value with PET [1] (40 °C, 1 h) came out at 0.84 µM; with PET [1] (40 °C, 2 h), 3 µM; with PET [1] (40 °C, 3 h), 4.3 µM; with PET [1] (40 °C, 4 h) it was 8.2 µM; in the data set with PET [1] (40 °C, 5 h) it was 8 µM; with PET [1] (40 °C, 6 h), 9.8 µM. Besides, the “Proxy for plastic degradation” value in the data set with PET [2] (1 h) came to 2.3 µM; with PET [2] (2 h), 3.8 µM; with PET [2] (3 h), 1.6 µM; in the data set with PET [2] (4 h) it was 5.4 µM; with PET [2] (5 h) it was 4.6 µM; with PET [2] (6 h), 4.9 µM.

B2: unnamed (protein)
chain: MAVGSMLLSMAAQAQVVVFEETFSTGLGKFTAAGSVVTSSGAARLDGCYGCTDGSITSTAISTVDFTGLRLSFDRVTSGLDSGEAGIAEFSTNGSTYTAVESIRTASGRVTFNLPTSAENQSGLRLRFRINASLSSETYTVDNIRLEGTSGSGGGTTNPFEKGPDPTKTMLEASTGPFTYTTTTVSSTTASGYRQGTIYHPTNVTGPFAAVAVVPGYLASQSSINWWGPRLASHGFVVITIDTNSTSDQPPSRATQLMAALNQLKTFSNTSSHPIYRKVDPNRLGVMGWSMGGGGTLIAARDNPTLKAAIPFAPWNSSTNFSTVSVPTLIIACESDSTAPVNSHASPFYNSLPSTTKKAYLEMCNGSHSCANSGNSNAGLIGKYGVSWMKRFMDNDTRFSPYLCGAPHQACLSLTAIDEYRENCPY
As for B2, the “Proxy for plastic degradation” value with BHET (pH 7, 30 °C) stood at 28.8 µM; in the data set with BHET (pH 7, 40 °C) it was 31.2 µM; in the data set with BHET (pH 7, 50 °C), 37.6 µM; with BHET (pH 9, 30 °C), 28.9 µM; with BHET (pH 9, 40 °C) it was 43.2 µM; with BHET (pH 9, 50 °C) it was 66.1 µM. Further, the “Proxy for plastic degradation” value with PET [1] (30 °C, 1 h) was found to be 12.1 µM; with PET [1] (30 °C, 2 h), 22.4 µM; with PET [1] (30 °C, 3 h), 33.3 µM; in the data set with PET [1] (30 °C, 4 h), 44.1 µM; with PET [1] (30 °C, 5 h), 64.8 µM; with PET [1] (30 °C, 6 h), 72.1 µM. The “Proxy for plastic degradation” value in the data set with PET [1] (40 °C, 1 h) was determined as 24.3 µM; with PET [1] (40 °C, 2 h), 43.4 µM; with PET [1] (40 °C, 3 h) it was 59.5 µM; with PET [1] (40 °C, 4 h), 58 µM; in the data set with PET [1] (40 °C, 5 h) it was 101 µM; with PET [1] (40 °C, 6 h), 104 µM.

B3: unnamed (protein)
chain: MAVGSMLLSMAAQAQVVVFEETFSTGLGKFTAAGSVVTSSGAARLDGCYGCTDGSITSTAISTVDFTGLRLSFDRVTSGLDSGEAGIAEFSTNGSTYTAVESIRTASGRVTFNLPTSAENQSGLRLRFRINASLSSETYTVDNIRLEGTSGSGGGTTNPFEKGPDPTKTMLEASTGPFTYTTTTVSSTTASGYRQGTIYHPTNVTGPFAAVAVVPGYLASQSSINWWGPRLASHGFVVITIDTNSTSDQPPSRATQLMAALNQLKTFSNTSSHPIYRKVDPNRLGVMGWSMGGGGTLIAARDNPTLKAAIPFAPWNSSTNFSTVSVPTLIIACESDSTAPVNSHASPFYNSLPSTTKKAYLEMNNGSHSCANSGNSNAGLIGKYGVSWMKRFMDNDTRFSPYLCGAPHQADLSLTAIDEYRENCPY
Turning to B3, the “Proxy for plastic degradation” value in the data set with PET [2] (1 h) was found to be 6 µM; with PET [2] (2 h) it was 8.6 µM; with PET [2] (3 h) it was 12.8 µM; with PET [2] (4 h), 11.8 µM; with PET [2] (5 h), 14.5 µM; in the data set with PET [2] (6 h), 15 µM.
